Legend:
Experiment in all cases: purified protein
Details in all cases: pH 8.0, 25 °C, 50 mM Tris-HCl, 1 mg/mL arabic gum, 0.05% Triton X-100, 10% isopropanol
[1] = system: CCC(C)CCCCCCCCCCC(=O)Oc1ccc([N+](=O)[O-])cc1
[2] = system: CCCCCCCC/C=C\CCCCCCCC(=O)Oc1ccc([N+](=O)[O-])cc1
[3] = system: CCCC(=O)Oc1ccc([N+](=O)[O-])cc1

Work on “Geh (Sal2); Geh-6xHis (Staphylococcus aureus subsp. aureus NCTC 8325)” yielded a Km [1] of 74.1 µM and a Km [2] of 160.5 µM.
With “Sal1; Sal1-6xHis (Staphylococcus aureus subsp. aureus USA300)” the Km [3] was 332.4 µM.

— PMC8452012, “Branched chain fatty acid synthesis drives tissue-specific innate immune response and infection dynamics of Staphylococcus aureus” (PLoS Pathogens, 2021)
